According to article PMC12221368, “Long AKAP18 isoforms anchor ubiquitin specific proteinases and coordinate calcium reuptake at the sarcoplasmic reticulum” (The Journal of Biological Chemistry, 2025):

How the values were obtained:
[1] = biological target: GFP-AKAP18γ (UniProt Q9P0M2)
[2] = biological target: GFP-AKAP18δ (UniProt Q6JP77 1-353); assay: cell-based or functional assay
Chain of GFP-AKAP18δ (Q6JP77 whole entry, stated change not applied): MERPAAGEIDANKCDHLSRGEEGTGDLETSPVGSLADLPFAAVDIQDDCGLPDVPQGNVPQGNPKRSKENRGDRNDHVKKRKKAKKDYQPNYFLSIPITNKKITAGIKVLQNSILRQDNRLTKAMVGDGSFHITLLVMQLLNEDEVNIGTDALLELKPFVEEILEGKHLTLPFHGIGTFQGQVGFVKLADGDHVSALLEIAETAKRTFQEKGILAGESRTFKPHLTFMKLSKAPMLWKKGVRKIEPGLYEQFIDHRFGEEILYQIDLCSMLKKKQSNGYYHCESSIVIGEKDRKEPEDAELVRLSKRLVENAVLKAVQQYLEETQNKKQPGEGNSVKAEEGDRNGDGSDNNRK

Chain of GFP-AKAP18γ (Q9P0M2 whole entry): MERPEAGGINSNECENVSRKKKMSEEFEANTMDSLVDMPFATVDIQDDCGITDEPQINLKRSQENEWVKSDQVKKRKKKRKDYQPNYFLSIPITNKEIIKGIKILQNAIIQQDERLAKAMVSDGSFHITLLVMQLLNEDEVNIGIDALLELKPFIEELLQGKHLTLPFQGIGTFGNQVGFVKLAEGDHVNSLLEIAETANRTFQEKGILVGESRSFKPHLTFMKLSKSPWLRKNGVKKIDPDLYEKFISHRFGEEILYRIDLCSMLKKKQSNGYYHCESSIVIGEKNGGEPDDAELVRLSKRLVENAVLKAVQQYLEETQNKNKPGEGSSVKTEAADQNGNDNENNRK

deubiquitinase activity (Ub-AMC fluorescent assay) in GFP immune complexes, fold over IgG controls, n = 3 [1]: 7.5 fold | deubiquitinase activity (Ub-AMC fluorescent assay) in GFP immune complexes, fold over IgG controls, n = 3 [2]: 9.2 fold
B1: V5-tagged USP4 (enzyme, UniProt Q13107 1-963, looked up)
chain: MAEGGGCRERPDAETQKSELGPLMRTTLQRGAQWYLIDSRWFKQWKKYVGFDSWDMYNVGEHNLFPGPIDNSGLFSDPESQTLKEHLIDELDYVLVPTEAWNKLLNWYGCVEGQQPIVRKVVEHGLFVKHCKVEVYLLELKLCENSDPTNVLSCHFSKADTIATIEKEMRKLFNIPAERETRLWNKYMSNTYEQLSKLDNTVQDAGLYQGQVLVIEPQNEDGTWPRQTLQSKSSTAPSRNFTTSPKSSASPYSSVSASLIANGDSTSTCGMHSSGVSRGGSGFSASYNCQEPPSSHIQPGLCGLGNLGNTCFMNSALQCLSNTAPLTDYFLKDEYEAEINRDNPLGMKGEIAEAYAELIKQMWSGRDAHVAPRMFKTQVGRFAPQFSGYQQQDSQELLAFLLDGLHEDLNRVKKKPYLELKDANGRPDAVVAKEAWENHRLRNDSVIVDTFHGLFKSTLVCPECAKVSVTFDPFCYLTLPLPLKKDRVMEVFLVPADPHCRPTQYRVTVPLMGAVSDLCEALSRLSGIAAENMVVADVYNHRFHKIFQMDEGLNHIMPRDDIFVYEVCSTSVDGSECVTLPVYFRERKSRPSSTSSASALYGQPLLLSVPKHKLTLESLYQAVCDRISRYVKQPLPDEFGSSPLEPGACNGSRNSCEGEDEEEMEHQEEGKEQLSETEGSGEDEPGNDPSETTQKKIKGQPCPKRLFTFSLVNSYGTADINSLAADGKLLKLNSRSTLAMDWDSETRRLYYDEQESEAYEKHVSMLQPQKKKKTTVALRDCIELFTTMETLGEHDPWYCPNCKKHQQATKKFDLWSLPKILVVHLKRFSYNRYWRDKLDTVVEFPIRGLNMSEFVCNLSARPYVYDLIAVSNHYGAMGVGHYTAYAKNKLNGKWYYFDDSNVSLASEDQIVTKAAYVLFYQRRDDEFYKTPSLSSSGSSDGGTRPSSSQQGFGDDEACSMDTN
